Measurements taken from the supplement of paper PMC9170038.

Tests used:
[1] = system: MS2 coat protein; assay: apparent KD of MS2 coat protein; designed switch direction (-1 OFF switch, 1 ON switch): -1; higher = weaker reporter binding; details: Eterna round: R98
Experimental: (§1)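 RNA-MaP: designed FMN/MS2 RNA switches (84 nt design region) are transcribed on-chip within common flanks and titrated with SNAP-549-labelled MS2 coat protein (about 1-3000 nM) in 100 mM Tris pH 7.5, 80 mM KCl, 4 mM MgCl2, without or with 200 uM FMN. Median apparent KD per design; activation ratio = KD,OFF / KD,ON.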

[2] = system: MS2 coat protein; assay: apparent KD of MS2 coat protein; higher = weaker reporter binding; details: Eterna round: R101
Experimental: as §1

[3] = system: MS2 coat protein; assay: apparent KD of MS2 coat protein; designed switch direction (-1 OFF switch, 1 ON switch): 1; higher = weaker reporter binding; details: Eterna round: R98
Experimental: as §1

Row | Sequence | apparent KD of MS2 coat protein ([1]; input ligand: FMN 200 uM) [nM] | apparent KD of MS2 coat protein ([1]; input ligand: none) [nM] | apparent KD of MS2 coat protein ([2]; input ligand: FMN 200 uM) [nM] | apparent KD of MS2 coat protein ([2]; input ligand: none) [nM] | further results
1 | AAAGUCGAGAAGAUAAUAAUGAAUACAUGAGGAUCACCCAUGUAGGAUAUGCAGUGGAAUACACUGCAGAAGGACAUACUCGAC [Exclusion NG 3/16-B1] | 16.4 | 13.6 |  |  | 
2 | AAAUAAAUUCAAGGAUAUGACUCCGAAACGGAGUCAGAAGGUGAGGAUCACCCACCUAUGAUCAGACCUCAGGAAACUGAGGUC [#SharedSequence ExNG1 - 39] (puzzle (switch architecture): Exclusion NG 1) |  |  | 6.56 | 6.19 | 
3 | AAAUAAAUUGAAGGAUAUCAGGGUGCACCUCAGUAAAACUGAGGUGCACCCUGAGAAGGUCGAGGAUCACCCGAUCUAAAUAAA [#SharedSequence SLExNG1: 1-2] (puzzle (switch architecture): Small Loop Exclusion NG 1) |  |  | 12 | 8.76 | 
4 | AAUAAACAAUAAAAGACUGGAGCAAACUUCUGAGGAUCACCCAGAAGGCGUCACCUAAUAGGUGACGAGGAUAUGGAGCUCCAG [#SharedSequence IExNG# - 2] (puzzle (switch architecture): Inverted Exclusion NG 3) |  |  | 6.36 | 5.76 | 
5 | AAUUAAUUAAUUAAUUGGACUGAUACAUGAGGAUCACCCAUGUAGGAUAUGCAGUGGAAUACACUGCAGAAGGACAUACAGUCC [Exclusion NG 3/1-B2] | 18.3 | 14.5 |  |  | 
6 | AGACCUGCUCAGAAGGUGGGAACGAGGCUGGAAACAGCCUCGAAAUUAAAUCCUUGAGGAUCACCCAAGGAUAUGAGCAGGUCA [#SharedSequence - IExNG2: 12] (puzzle (switch architecture): Inverted Exclusion NG 2) |  |  | 84.3 | 10.3 | 
7 | AGAGCUGCUCAGAAGGAGGAUCACCCUUUCGAAAGAAAUACGGAGGCUGAAAAGCCUCCGAAAUCUUAGGAUAUGAGCAGCUCA [#SharedSequence - IExNG2: 6] (puzzle (switch architecture): Inverted Exclusion NG 2) |  |  | 166 | 153 | 
8 | AGGUGGGUGCUGCAGUGAUAUACAUGAGGAUCACCCAUGUCCGAGGAUAUGCGGCAAACACGCCAGCAGAAGGCGGAGAAAAUG [Soorisrila] | 154 | 125 |  |  | 
9 | AGUACUCCAGAAGGAUAUGCGUCGGUGGAUGUCCUUAGGCGGACGGUCACAUGAGGAUCACCCAUGUAGAAGGUCUGGGAGCCA [Leesla] | 87.3 | 19.2 |  |  | 
10 | AUGGUUGUCGUAGGAUAUGUAGGAUAUUCCUACAUGAGGAUCACCCAUGUUCGCAUGGAAGAAGGACAGAAGGACGAUGACCAA [salish99_SSNG2_008 #endbits investigation] (puzzle (switch architecture): Same State NG 2) |  |  | 9.65 | 840 | 
11 | CAAUUGGCACAGAAGGGUGACAUGAGGAUCACCCAUGUAGCGUGGCUCUCAGGAGGAGCCACGCCACAGGAUAUGUGCCGGCAC [Anrilaage] (puzzle (switch architecture): Inverted Same State NG 2) |  |  | 102 | 177 | 
12 | CACGACAGGAAACGGAGCGGCCAACAUGAGGAUCACCCAUGUGAGGAUAUGCCUACUAAAAGUAGGCAGAAGGCACAGAAGGCA [Ex NG2 #73] | 136 | 58.1 |  |  | 
13 | CUCCCUCCCUCCCUCCCUCCCUCCGAGGAUAUCCCAAACUCCCUCCCUCCCUCCCUCCCAAAUUCCCAGAAGGCCCUUUUUCCC [2nd design] (puzzle (switch architecture): Small Loop Same State NG 3) |  |  | 4.61 | 46.4 | 
14 | CUUACUUUGUAGAAGGGUGACAUGAGGAUCACCCAUGUGCGUCUCCUGAAAGACCAGGGUACGCCACAGGAUAUACAAAGUAAG [Tigeatdi] (puzzle (switch architecture): Inverted Same State NG 2) |  |  | 59.8 | 116 | 
15 | GCACUGGAUGUAGGAUAUCAGGACGAUAAGUCCUGAGAAGGACAUGAGGAUCACCCAUGUAAAUACUCCCAGUGCAAUAAUAUA [Denovo Exng1 21] | 16.6 | 12.6 |  |  | 
16 | GCAGCUAAUGCAGGAUAUCAGCACGUGUAGUGCUGAGAAGGGCACAUGAGGAUUCUGUCUGUGAUCAAUUAAUAUUAAUGCUGC [salish99#hingeEx3_55-58_006] (puzzle (switch architecture): Exclusion NG 1) |  |  | 11.5 | 30.4 | 
17 | GCGUAAAAGAUCCUAUUUAUCUACAUGAGGAUCACCCAUGUGCAGGAUAUGCUAUAUUUAAUAAAGCAGAAGGGCAAUAACCGC [JR_ExcNG3_Sub009] | 281 | 67.6 |  |  | 
18 | GCUGCAAAGUAAGGAUAUGCCUAGGAAACCUAGGCAGAAGGUACAUGAGGAUCACCCAUGUUAACUGAAACAGAAUAAAGCAGC [Thrunch 6 - Jieux - Exclusion NG 1] | 23.2 | 13.5 |  |  | 
19 | GGUCGACCUCAAGGAUAUGGACUGCAAAGCAGUCCAGAAGGUGAGGAUCACCCACCUACGGUCAGGAAACUGACCGAUCGACCA [#SharedSequence - ExNG1-2] (puzzle (switch architecture): Exclusion NG 1) |  |  | 117 | 19.8 | 
20 | GGUUAUAUAACAUGAGGAUCACCCAUGUGAGUGGUCCGAAGCUAGGAUAUCCACACGAGAAGUGUGGAGAAGGAGCAUUCAUUA [AK-NGROCr2-ExNG3-7] | 159 | 273 |  |  | 
21 | GUAGCUAUCGGAGGAUAUUCAUACCGGAAACGGACAUGAGGAUCACCCAUGUGGCGAAAGCCAUGGGAGAAGGCCGAUAGCUAC [jl-sng2-3.01 #MUTATE_MAP] (puzzle (switch architecture): Same State NG 2) |  |  | 52.2 | 856 | 
22 | UAAAUAGAUCCUAGAGGAUCACCCUAGGAUAUCACCGUCGAGGUGCCAUAAUGGCACCUCGACGGUGAGAAGGAGGGAAAUAAA [#SharedSequence - SLExNG3: 2] (puzzle (switch architecture): Small Loop Exclusion NG 3) |  |  | 77.8 | 51.2 | 
23 | UCAACAAGGUGAGGAUAUGCACAGGAUCACCGUGUAGAAGGCAUCAGGUAGAAGGUGCAGAGGAUCACCCUGUAAGGAUAUACA [pwkr2 ssNG1 DX.9] |  |  |  |  | apparent KD of MS2 coat protein ([3]; input ligand: FMN 200 uM): 526 nM; apparent KD of MS2 coat protein ([3]; input ligand: none): 1320 nM
24 | UCACUCACGUUAGGAUAUGGAUCGGAAAACGAUCCAGAAGGAACCUGCAAACCUGAGGAUCACCCGGGUUCCAAUAACGAGUGA [SameSame 9 - Jieux - Same State NG 1] |  |  |  |  | apparent KD of MS2 coat protein ([3]; input ligand: FMN 200 uM): 458 nM; apparent KD of MS2 coat protein ([3]; input ligand: none): 778 nM
25 | UCCGCUAUCGCAGGAUAUUACAUGGGAAAGAGUACAUGAGGAUCACCCAUGUAAAAGAUCAUAAAUAAGAAGGGCGAUAGCGGA [Lame State 9 - Jieux - Same State NG 2] |  |  |  |  | apparent KD of MS2 coat protein ([3]; input ligand: FMN 200 uM): 214 nM; apparent KD of MS2 coat protein ([3]; input ligand: none): 18.8 nM
26 | UCUUAAAUGAUCCUAUUUACCAACAUGAGGAUCACCCAUGUGCAGGAUAUGCUAAAGAUAGAUAAGCAGAAGGGCAUUAACCGC [JR_ExcNG3_Sub006] | 244 | 165 |  |  | 
27 | UGGAUCAAUACAGGAUAUGGUGACGCACAUGAGGAUCACCCAUGUCCGCAGCGUGCUAAGCACGCCCAGAAGGGUAUUGACUUG [Enxe] |  |  |  |  | apparent KD of MS2 coat protein ([3]; input ligand: FMN 200 uM): 106 nM; apparent KD of MS2 coat protein ([3]; input ligand: none): 858 nM
28 | UGGGAAUGAACAUGAGGAUCACCCAUGUCCCGGAAACGGAAUGAGGAUAUCCAUAGCAAAGCUAUGGAGAAGGCAUGGGUCCCA [SaneState 20 - Jieux - Same State NG 2] |  |  |  |  | apparent KD of MS2 coat protein ([3]; input ligand: FMN 200 uM): 475 nM; apparent KD of MS2 coat protein ([3]; input ligand: none): 756 nM
29 | UGUGUUAUCGGAGGAUAUCGAUAUCAAACAUGAGGAUCACCCAUGUUGAGGAUCACCCAUGUCCACGAGAAGGCCGGCGUACUG [My 7th design] (puzzle (switch architecture): Same State NG 2) |  |  | 12.5 | 12.9 | 
30 | UUGCAUUGAUGAGGAUAUGGACAUGAGGAUCACCCAUGUUGGGCGGGUAUGAUUUCCGAGGGAGGCUAGAAGGCGUAUUAUGUU [Exclusion NG 2] | 60.8 | 45.5 |  |  | 
